# From publication PMC5855711
# Assays:
# Conditions in all cases: remark: other sources report otherwise
# [1] = biological target: T1, human recombinant HSP60 (without mitochondrial signal sequence) (human), P10809; test: transmission electron microscopy (uranyl acetate stain); 1 mM ADP; HSP60 0.1 μM alone or with HSP10 0.2 μM, buffer D, 25 °C, 10 min
# [2] = biological target: T1, human recombinant HSP60 (without …); test: SEC; Superdex 200 10/300 GL, 0.41 μM HSP60 or GroEL, 0.1 M NaCl, 5% glycerol, 50 mM HEPES-KOH pH 7.4, no nucleotide; size from a calibration curve
# [3] = biological target: T1, human recombinant HSP60 (without …); test: small angle X-ray scattering (SAXS); 1 mM ATP; 3.0 mg/mL HSP60 or GroEL with various concentrations of co-chaperone, buffer D, 25 °C; self-association: single ring (7) to double ring (14)
# [4] = biological target: T1, human recombinant HSP60 (without …); test: transmission electron microscopy (uranyl acetate stain); no nucleotide; HSP60 0.1 μM alone or with HSP10 0.2 μM, or GroEL 0.1 μM with GroES 0.2 μM, buffer D (10 mM MgCl2, 20 mM KCl, 1 mM DTT, 50 mM HEPES-KOH pH 7.4), 25 °C, 10 min
# [5] = biological target: T1, human recombinant HSP60 (without …); test: transmission electron microscopy (uranyl acetate stain); 1 mM ATP; HSP60 (wild type or D398A) 0.1 μM alone or with HSP10 0.2 μM, or GroEL 0.1 μM with GroES 0.2 μM, buffer D, 25 °C, 10 min; more than 500 side views counted, three experiments; self-association: single ring (7) to double ring (14)
binder,measurement,setting,value
"human recombinant HSP60 (without mitochondrial signal sequence), P10809 27-573 (natural protein) AKDVKFGADARALMLQGVDLLADAVAVTMGPKGRTVIIEQSWGSPKVTKDGVTVAKSIDLKDKYKNIGAKLVQDVANNTNEEAGDGTTTATVLARSIAKEGFEKISKGANPVEIRRGVMLAVDAVIAELKKQSKPVTTPEEIAQVATISANGDKEIGNIISDAMKKVGRKGVITVKDGKTLNDELEIIEGMKFDRGYISPYFINTSKGQKCEFQDAYVLLSEKKISSIQSIVPALEIANAHRKPLVIIAEDVDGEALSTLVLNRLKVGLQVVAVKAPGFGDNRKNQLKDMAIATGGAVFGEEGLTLNLEDVQPHDLGKVGEVIVTKDDAMLLKGKGDKAQIEKRIQEIIEQLDVTTSEYEKEKLNERLAKLSDGVAVLKVGGTSDVEVNEKKDRVTDALNATRAAVEEGIVLGGGCALLRCIPALDSLTPANEDQKIGIEIIKRTLKIPAMTIAKNAGVEGSLIVEKIMQSSSEVGYDAMAGDFVNMVEKGIIDPTKVVRTALLDAAGVASLLTTAEVVVTEIPKEEKDPGMGAMGGMGGGMGGGMF",stoichiometry N,[1],7
same,stoichiometry N,[2],7.3 subunits
same,"fraction of double-ring HSP60 (curve fitting, HSP60+ATP)",[3],0.14
same,"fraction of single-ring HSP60 (curve fitting, HSP60+ATP)",[3],0.86
same,"fraction of single-ring HSP60 without HSP10 (curve fitting, HSP10 and ATP present)",[3],0.09
same,"percent of HSP60 in double rings (from I(0)/C, ATP, no HSP10)",[3],50%
same,stoichiometry N,[4],7
same,percent of HSP60-containing complexes with the double-ring structure (with HSP10 and ATP),[5],80%
same,"percent of HSP60 in double rings, football-type and bullet-type (with HSP10 and ATP)",[5],70%
same,"percent of side views that are HSP60 (7), single ring alone (with HSP10 and ATP)",[5],10%
same,"percent of side views that are HSP60 (14), double ring alone (with HSP10 and ATP)",[5],2%
